The numbers were not newly measured in article PMC8136485, “Were Ancestral Proteins Less Specific?” (Molecular Biology and Evolution, 2021), which cites them from elsewhere.

What is called Kd is the constant that tells how readily two partners part at equilibrium.

The target of the data set is NCX1 peptide (Homo sapiens) (UniProt P32418). The conditions noted are these: cited from earlier work.
Chain of NCX1 peptide (Homo sapiens) (P32418 36-973): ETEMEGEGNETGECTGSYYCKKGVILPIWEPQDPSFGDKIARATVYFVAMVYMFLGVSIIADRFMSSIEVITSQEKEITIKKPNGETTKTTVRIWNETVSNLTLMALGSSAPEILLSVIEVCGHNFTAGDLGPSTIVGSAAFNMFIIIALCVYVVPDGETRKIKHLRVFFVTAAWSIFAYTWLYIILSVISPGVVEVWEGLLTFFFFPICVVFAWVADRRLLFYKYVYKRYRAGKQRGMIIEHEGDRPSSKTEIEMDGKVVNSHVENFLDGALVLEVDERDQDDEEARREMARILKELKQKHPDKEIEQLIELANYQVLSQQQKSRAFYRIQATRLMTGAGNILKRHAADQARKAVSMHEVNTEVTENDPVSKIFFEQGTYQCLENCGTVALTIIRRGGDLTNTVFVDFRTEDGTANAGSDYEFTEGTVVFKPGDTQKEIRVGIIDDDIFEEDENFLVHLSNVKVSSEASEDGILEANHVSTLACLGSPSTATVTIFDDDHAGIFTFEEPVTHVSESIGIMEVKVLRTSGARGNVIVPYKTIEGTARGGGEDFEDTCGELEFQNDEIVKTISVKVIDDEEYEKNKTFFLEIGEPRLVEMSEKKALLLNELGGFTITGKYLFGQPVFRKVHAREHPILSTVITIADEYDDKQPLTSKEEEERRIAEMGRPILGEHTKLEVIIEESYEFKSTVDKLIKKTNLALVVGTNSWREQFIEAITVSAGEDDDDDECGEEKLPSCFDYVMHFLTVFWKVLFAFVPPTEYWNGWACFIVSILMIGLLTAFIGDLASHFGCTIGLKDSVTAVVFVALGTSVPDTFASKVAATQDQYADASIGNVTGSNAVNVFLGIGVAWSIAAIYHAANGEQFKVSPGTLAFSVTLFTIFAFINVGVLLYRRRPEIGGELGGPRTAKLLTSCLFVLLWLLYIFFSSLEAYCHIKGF

Chain of hA5 (S100A5) (P33763 whole entry): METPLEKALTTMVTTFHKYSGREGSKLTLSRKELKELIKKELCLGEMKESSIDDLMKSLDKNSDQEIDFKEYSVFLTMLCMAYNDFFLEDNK

Consider hA5 (S100A5) (from UniProt P33763), for which the dissociation constant Kd is 18 µM.
